Measurements published in patent US10561709B2, “Methods and compositions of neuregulins for preventing, treating or delaying preserved ejection fraction cardiac failure” (Zensun (Shanghai) Science & Technology, Co., Ltd., priority 2014, dated 2020).

Tests used:
[1] = system: SHR hypertensive rats with heart failure; assay: Hemodynamic measurement in hypertensive heart failure rats; format: in vivo, rat; conditions: captopril 10 mg/kg intragastric 2 times a day; for MAP / −dp/dt: hypertensive heart failure rats, after 3 treatment cycles, rhNRG 6.5 ug/kg i.v. once a day 5 days on/2 days off
Protocol: (§1) The study is on the therapeutic effect of recombinant human neuregulin (rhNRG) in SHR hypertensive rats with heart failure. Methods: SHR hypertensive rat strains, normal feeding, monitoring changes of cardiac function during feeding. […] Hypertensive heart failure rats were randomly divided into negative control group, NRG treatment group and captopril treatment group. rhNRG was administered continuously for 5 days, withdrawing for 2 days in a treatment cycle, NRG group received 3 treatment cycles. At the end of the second and third treatment cycle, each group of rats was examined by echocardiography to determine the cardiac function changes. After the third treatment cycle, hemodynamics of the rats were detected.
(§2) The SHR hypertensive rat strains, normal feeding, and monitoring the cardiac function changes during the feeding.
After the model was successfully established, the rats were randomly divided into negative control group, NRG treatment group and captopril treatment group. RhNRG was administered intravenously, with a dose of 6.5 ug/kg, once a day, 5 days of continuous administration and 2 days of drug withdraw period as a treatment cycle. A total of 3 treatment cycles were administered. At the same time, the NRG group was given drinking water by intragastric administration two times a day. Captopril was administrated 10 mg/kg by intragastric administration, 2 times a day, continuous administration. NRG excipient was administrated by tail vein injection for 3 treatment cycles. The negative control group were given drinking water by intragastric administration and given NRG excipients by tail vein injection.
At the end of the third treatment cycle, the rats were anesthetized with 3% pentobarbital by intraperitoneal injection. Median incision was made in the neck, the left common carotid artery was isolated and intubated, and the arterial and left ventricular hemodynamic parameters were measured.

[2] = system: SHR hypertensive rats with heart failure; assay: Echocardiography examination in hypertensive heart failure rats; format: in vivo, rat; conditions: rhNRG 6.5 ug/kg, after 2 cycles or 3 cycles of treatment
Protocol: as §1, §2
After the model was successfully established, the rats were randomly divided into negative control group, NRG treatment group and captopril treatment group. RhNRG was administered intravenously, with a dose of 6.5 ug/kg, once a day, 5 days of continuous administration and 2 days of drug withdraw period as a treatment cycle. A total of 3 treatment cycles were administered. At the same time, the NRG group was given drinking water by intragastric administration two times a day. […]

[3] = system: patients with heart failure with preserved ejection fraction; assay: Mitral valve flow spectrum of two-dimensional echocardiography, preliminary clinical trial; format: in vivo, human
Protocol: To evaluate the effect of recombinant human neuregulin on cardiac function of patients with heart failure with preserved ejection fraction, the preliminary clinical trial was carried out in the Sixth People's Hospital Affiliated to Shanghai Jiao Tong University, which comprises 2 patients in the placebo group and 2 patients in the experiment group.
1.1 left ventricular ejection fraction (LVEF) ≥50% (two-dimensional echocardiography diagnosis);
1.2 New York heart function (NYHA) II or III level;
4. Data collection: Mitral valve flow spectrum of two-dimensional echocardiography was detected during the screening period, 11-13 d and 30 d.

[4] = patient 8003, 0.3 ug/kg/day i.v. drip 10 hours a day for 10 days, 11-13 d
[5] = patient 8003, 0.3 ug/kg/day i.v. drip 10 hours a day for 10 days, 30 d
[6] = patient 8003, 0.3 ug/kg/day i.v. drip 10 hours a day for 10 days, screening period (before treatment)
[7] = patient 8004, 0.3 ug/kg/day i.v. drip 10 hours a day for 10 days, 11-13 d
[8] = patient 8004, 0.3 ug/kg/day i.v. drip 10 hours a day for 10 days, 30 d
[9] = patient 8004, 0.3 ug/kg/day i.v. drip 10 hours a day for 10 days, screening period (before treatment)

With `C[C@H](CS)C(=O)N1CCC[C@H]1C(=O)O` [captopril, reference compound] the MAP [1] was 139.9 ± 24.8, the “−dp/dt” value [1] was −5441.2 ± 1007.3 and the blood pressure ([1]; hypertensive rats, vs 216.5±23.2 and 228.0±26.0 in the other groups (p=0.029, p=0.017)) was 174.5±33.0.

B1: NRG: Recombinant human neuregulin, Neucardin™, 61 amino acids, produced by Shanghai Zensun Sci & Tech Co., Ltd. (protein)
chain: SHLVKCAEKEKTFCVNGGECFMVKDLSNPSRYLCKCPNEFTGDRCQNYVMASFYKAEELYQ
modifications: homo sapiens
With B1 the “left ventricular end diastolic and end systolic volume” value [2] was “prevent further left ventricular end diastolic and end systolic volume enlargement”, the MAP [1] was 182.5 ± 18.8 and the “−dp/dt” value [1] was −7467.6±715.8. The DT [3, 4] was 203.7 ms, the IVRT [3, 4] was 340.1 ms and the DT [3, 5] was 179.5 ms. It also gave an IVRT [3, 5] of 345 ms, a DT [3, 6] of 229.08 ms and an IVRT [3, 6] of 374.31 ms. It also gave a DT [3, 7] of 256.15 ms, an IVRT [3, 7] of 609.28 ms and a DT [3, 8] of 255.14 ms. The IVRT [3, 8] was 499.08 ms, the DT [3, 9] was 262.28 ms and the IVRT [3, 9] was 621.07 ms. The “IVRT and DT values, change over the trial” value ([3]; patients administered with NRG 0.3 ug/kg/day, versus placebo patients whose values gradually increased) was “significantly decreased”.
